Assay results from US20230365658A1.

Molecular target: SARS-CoV-2 spike (S) glycoprotein, artificially-constructed BA.2.75+R346T (SARS-CoV-2), P0DTC2
Assay: cell-based or functional assay

B1: mAb_v2130Vanderbilt_184_20220114_00112 (antibody, V domains shown)
VH: EVQLVESGGGLVKPGGSLRLSCAASGFTFRDVWMSWVRQAPGKGLEWVGRIKSKIDGGTTDYAAPVKGRFTISRDDSKNTLYLQMNSLKTEDTAVYYCTTAGSYYYDTVGPELPEGKFDYWGQGTLVTVSS
VL: not shown
- pseudoviral neutralization IC50: 0.674 µg/mL
